Results published in patent US20250368754A1.

Target: human LTβR on A375 cells (human) (UniProt P36941)
Assay: cell-based or functional assay

human LTβR on A375 cells (human), sequence (P36941 31-435): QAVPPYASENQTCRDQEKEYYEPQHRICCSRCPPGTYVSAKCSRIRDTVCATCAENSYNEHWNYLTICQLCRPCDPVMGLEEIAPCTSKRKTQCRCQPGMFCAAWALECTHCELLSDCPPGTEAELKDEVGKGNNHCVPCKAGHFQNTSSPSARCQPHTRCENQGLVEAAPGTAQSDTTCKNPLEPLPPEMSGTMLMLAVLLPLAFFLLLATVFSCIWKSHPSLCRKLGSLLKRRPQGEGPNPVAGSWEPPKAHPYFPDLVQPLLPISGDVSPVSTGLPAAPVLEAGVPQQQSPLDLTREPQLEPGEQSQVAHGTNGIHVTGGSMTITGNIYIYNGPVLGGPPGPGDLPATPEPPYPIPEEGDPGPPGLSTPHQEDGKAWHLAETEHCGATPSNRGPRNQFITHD

IL-8 secretion of A375 cells, EC50 (FIG. 15a): 0.226 nM
IL-8 secretion of A375 cells, EC50 (FIG. 15b): 0.19 nM
Substance: recombinant human LIGHT (R&D systems) (from UniProt O43557 74-240) (ligand)
